Patent US20250332197A1 (SUNSHINE LAKE PHARMA, published 2025)

T1: claudin-18.2 antigen (manufacturer: GenScript, batch number: R50092011) (UniProt P56856-2 1-261, limits assumed)
T1 construct: Bought antigen
T1 sequence (looked up): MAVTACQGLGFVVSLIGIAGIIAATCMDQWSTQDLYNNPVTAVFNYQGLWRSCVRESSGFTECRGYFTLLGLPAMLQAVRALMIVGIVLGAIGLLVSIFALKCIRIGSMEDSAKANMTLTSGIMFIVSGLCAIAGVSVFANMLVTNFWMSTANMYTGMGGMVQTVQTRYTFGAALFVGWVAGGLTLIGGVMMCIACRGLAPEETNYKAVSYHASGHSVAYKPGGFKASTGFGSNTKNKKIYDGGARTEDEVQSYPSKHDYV


What was measured:
[1] = target: T1, claudin-18.2 antigen (manufacturer: …); assay: ELISA, plate coated with claudin-18.2 antigen
Experimental: The ELISA plates were washed three times with PBST and blocked with 5% PBS-milk for 2 h at room temperature. The ELISA plate was washed three times with PBST, and the diluted antibodies were added to the ELISA plate, 30 μL per well, and incubated at room temperature for 60 min. The plates were washed three times with PBST and incubated with anti-human IgG-Fc-HRP (abcam, ab97225) for 50 min at room temperature. The plate was washed 12 times with PBST, and TMB was added, 30 μL per well. The reaction was terminated with stop solution and OD450 was read. The ELISA affinity EC50 was calculated.

[2] = target: T1, claudin-18.2 antigen (manufacturer: …); assay: Gator label-free kinetics, antibody loaded, antigen 2000-500 nM
Experimental: The GATOR instrument and associated software were opened and the Kinetics experimental mode was selected. After data collection, Kinetics fitting was performed to calculate the affinity kinetic parameters. The correlation coefficient R² of all antibodies in the Global fitting mode was greater than 0.95, which met the system suitability requirements and the results were reliable.

Binder | EC50 [1] [µg/mL] | Kd [2] [nM] | koff [2] [s⁻¹] | kon [2] [M⁻¹ s⁻¹]
1E7-huVH3-HC (IgG1) huVL2 (antibody, humanized 1E7, human IgG1, kappa) heavy: not shown light: DIQMTQSPSSLSASVGDRVTMTCKSSQSLLNSGNQKNYLTWYQQKPGKAPKLLIYWASTRESGVPSRFSGSGSGTDFTLTISSLQPEDFATYYCQNDYSYPFTFGGGTKLEIKRTVAAPSVFIFPPSDEQLKSGTASVVCLLNNFYPREAKVQWKVDNALQSGNSQESVTEQDSKDSTYSLSSTLTLSKADYEKHKVYACEVTHQGLSSPVTKSFNRGEC | 0.0576 | 0.289 | 2.94e-06 | 10200
1E7-huVH1-HC (IgG1) huVL1 (antibody, humanized 1E7, human IgG1, kappa) heavy: not shown light: DIVMTQSPSSLSVSVGDRVTMTCKSSQSLLNSGNQKNYLTWYQQKPGQPPKLLIYWASTRESGVPDRFSGSGSGTDFTLTISSVQPEDFATYYCQNDYSYPFTFGGGTKLEIKRTVAAPSVFIFPPSDEQLKSGTASVVCLLNNFYPREAKVQWKVDNALQSGNSQESVTEQDSKDSTYSLSSTLTLSKADYEKHKVYACEVTHQGLSSPVTKSFNRGEC | 0.0479 | 4.9 | 5.97e-05 | 12200
1E7-huVH1-HC (IgG1) huVL2 (antibody, humanized 1E7, human IgG1, kappa) heavy: not shown light: DIQMTQSPSSLSASVGDRVTMTCKSSQSLLNSGNQKNYLTWYQQKPGKAPKLLIYWASTRESGVPSRFSGSGSGTDFTLTISSLQPEDFATYYCQNDYSYPFTFGGGTKLEIKRTVAAPSVFIFPPSDEQLKSGTASVVCLLNNFYPREAKVQWKVDNALQSGNSQESVTEQDSKDSTYSLSSTLTLSKADYEKHKVYACEVTHQGLSSPVTKSFNRGEC | 0.0305 | 4.85 | 5.87e-05 | 12100
1E7-huVH2-HC (IgG1) huVL1 (antibody, humanized 1E7, human IgG1, kappa) heavy: not shown light: DIVMTQSPSSLSVSVGDRVTMTCKSSQSLLNSGNQKNYLTWYQQKPGQPPKLLIYWASTRESGVPDRFSGSGSGTDFTLTISSVQPEDFATYYCQNDYSYPFTFGGGTKLEIKRTVAAPSVFIFPPSDEQLKSGTASVVCLLNNFYPREAKVQWKVDNALQSGNSQESVTEQDSKDSTYSLSSTLTLSKADYEKHKVYACEVTHQGLSSPVTKSFNRGEC | 0.111 | 1.82 | 1.97e-05 | 10900
1E7-huVH2-HC (IgG1) huVL2 (antibody, humanized 1E7, human IgG1, kappa) heavy: not shown light: DIQMTQSPSSLSASVGDRVTMTCKSSQSLLNSGNQKNYLTWYQQKPGKAPKLLIYWASTRESGVPSRFSGSGSGTDFTLTISSLQPEDFATYYCQNDYSYPFTFGGGTKLEIKRTVAAPSVFIFPPSDEQLKSGTASVVCLLNNFYPREAKVQWKVDNALQSGNSQESVTEQDSKDSTYSLSSTLTLSKADYEKHKVYACEVTHQGLSSPVTKSFNRGEC | 0.0555 | 2.89 | 3.18e-05 | 11000
1E7-huVH3-HC (IgG1) huVL1 (antibody, humanized 1E7, human IgG1, kappa) heavy: not shown light: DIVMTQSPSSLSVSVGDRVTMTCKSSQSLLNSGNQKNYLTWYQQKPGQPPKLLIYWASTRESGVPDRFSGSGSGTDFTLTISSVQPEDFATYYCQNDYSYPFTFGGGTKLEIKRTVAAPSVFIFPPSDEQLKSGTASVVCLLNNFYPREAKVQWKVDNALQSGNSQESVTEQDSKDSTYSLSSTLTLSKADYEKHKVYACEVTHQGLSSPVTKSFNRGEC | 0.0663 | 0.35 | 3.6e-06 | 10300
1E7-huVH3-HC (IgG1) huVL3 (antibody, humanized 1E7, human IgG1, kappa) heavy: not shown light: DIQMTQSPSSLSASVGDRVTITCRSSQSLLNSGNQKNYLTWYQQKPGKAPKLLIYWASTRESGVPSRFSGSGSGTDFTLTISSLQPEDFATYYCQNDYSYPFTFGGGTKLEIKRTVAAPSVFIFPPSDEQLKSGTASVVCLLNNFYPREAKVQWKVDNALQSGNSQESVTEQDSKDSTYSLSSTLTLSKADYEKHKVYACEVTHQGLSSPVTKSFNRGEC | 0.0707 | 11.6 | 0.000132 | 11300
1E7-huVH4-HC (IgG1) huVL2 (antibody, humanized 1E7, human IgG1, kappa) heavy: not shown light: DIQMTQSPSSLSASVGDRVTMTCKSSQSLLNSGNQKNYLTWYQQKPGKAPKLLIYWASTRESGVPSRFSGSGSGTDFTLTISSLQPEDFATYYCQNDYSYPFTFGGGTKLEIKRTVAAPSVFIFPPSDEQLKSGTASVVCLLNNFYPREAKVQWKVDNALQSGNSQESVTEQDSKDSTYSLSSTLTLSKADYEKHKVYACEVTHQGLSSPVTKSFNRGEC | 0.0397 | 10.7 | 0.000126 | 11800
